The record followed here is publication PMC2898303 (The Journal of Biological Chemistry, 2010).

Assay [1] deals with T1, His6-S-Tag-Gfd1 wild type (S. cerevisiae, UniProt Q04839 1-188).
T1 sequence (looked up): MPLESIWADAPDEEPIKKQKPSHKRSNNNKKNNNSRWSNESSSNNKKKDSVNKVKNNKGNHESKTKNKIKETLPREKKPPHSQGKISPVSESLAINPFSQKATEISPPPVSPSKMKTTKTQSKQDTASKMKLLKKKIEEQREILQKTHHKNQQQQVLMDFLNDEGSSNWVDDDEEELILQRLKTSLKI
Put plainly: pull-down.

Assay [2] concerns the target T2, Nab2-N (residues 1–105 of Nab2), untagged (S. cerevisiae, UniProt P32505 1-105).
T2 sequence (looked up): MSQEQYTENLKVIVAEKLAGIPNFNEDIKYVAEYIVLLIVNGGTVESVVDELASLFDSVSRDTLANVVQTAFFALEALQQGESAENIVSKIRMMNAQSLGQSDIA
Kind of assay: crystal structure.

B1: GST-Nab2-N-WT (residues 1–97) (domain or fragment, S. cerevisiae, UniProt P32505 1-97, looked up)
chain: MSQEQYTENLKVIVAEKLAGIPNFNEDIKYVAEYIVLLIVNGGTVESVVDELASLFDSVSRDTLANVVQTAFFALEALQQGESAENIVSKIRMMNAQ
Consider B1, for which the binding result in assay [1] was “binds”.

B2: GST-Nab2-N-F56D (residues 1–97) (domain or fragment, S. cerevisiae, UniProt P32505 1-97, looked up)
chain: MSQEQYTENLKVIVAEKLAGIPNFNEDIKYVAEYIVLLIVNGGTVESVVDELASLDDSVSRDTLANVVQTAFFALEALQQGESAENIVSKIRMMNAQ
With B2, the binding result in assay [1] is listed as “binds”.

B3: GST-Nab2-N-L55W (residues 1–97) (domain or fragment, S. cerevisiae, UniProt P32505 1-97, looked up)
chain: MSQEQYTENLKVIVAEKLAGIPNFNEDIKYVAEYIVLLIVNGGTVESVVDELASWFDSVSRDTLANVVQTAFFALEALQQGESAENIVSKIRMMNAQ
B3: in assay [1], the binding result is listed as “binds”.

Consider SKQDTASKMKLLKKKIEEQREILQKTHHKN (peptide, UniProt Q04839 122-151, looked up) [Gfd1 122–151 (fragment of Gfd1 released from GST-TEV-Gfd1 122–151 by TEV protease)], for which, in assay [2], the binding result is “binds”.
